Assay results as given in the supplement of paper PMC7125110.
± gives the standard error. Variants at the floor of the assay were thinned out.

B1: glmS ribozyme (parent)
chain: AUAAAAGCGCCAGAACUACAGAAAUGUAGUUGACGAGGAGGAGGUUUAUCGAAUUUUCGGCGGAUGCCUCCAAA

Variants of: B1
Assay: self-cleavage kobs at 2500 uM GlcN6P; higher = faster cleavage; RNA array
Conditions: with glucosamine-6-phosphate
In short: (§1)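 The measurements used barcoded ribozyme variants on sequenced MiSeq chips, transcribed in situ by E. coli RNA polymerase and tracked at 37 °C with a hybridised Cy3 probe. Glucosamine-6-phosphate, 40 μM to 10 mM in HEPES/KCl/Mg(OAc)2 buffer, was flowed in while tiles were imaged over ~14 h. Baseline-normalised signals, also normalised to non-cleaving reference variants, gave per-tile medians that were fit to one- or two-exponential decays for kobs. kcat and KM resulted from weighted Michaelis–Menten fits across concentrations.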

Row | Variant | self-cleavage kobs at 2500 uM GlcN6P
1 | AUAAAAGCGCCAGAACUACAGAAAUGUAGUUGACGAAGAGGAGAUUUAUCGAAUUCUCGGCGGAUGCCUCAAAA [G37A G44A U56C C71A] | < 1e-05 s⁻¹
2 | AUAAAAGCGCCAGAACUACAGAAAUGUAGUUGACGGGGAGGAGGUUUUUCGAAUUUUCGGCGGCUGCCUCCAAA [A36G A48U A64C] | < 1e-05 s⁻¹
3 | AUAAAAGCGCCAGAACUACAGAAAUGUAGUUGACGAAGAGGUGGUUUAUCGGAUUUUCGGCGGAUGCCUCAAAA [G37A A42U A52G C71A] | < 1e-05 s⁻¹
4 | AUAAAAGCGCCAGAACUACAGAAAUGUAGUUGACGGGGAGGAGGGUUAUCGAAUUUUCGGCGGAUGACUCCAAA [A36G U45G C67A] | < 1e-05 s⁻¹
5 | AUAAAAGCGCCAGAACUACAGAAAUGUAGUUGACGGGGACGAGGUUUAUCGAAUUUUCUGCGGAUGCCUCCAAA [A36G G40C G59U] | < 1e-05 s⁻¹
6 | AUAAAAGCGCCAGAACUACAGAAAUGUAGUUGACGAGGCGGAGGUUUAUCGAAUUUUCGAAGGAUGCCUCCAAA [A39C G60A C61A] | < 1e-05 s⁻¹
7 | AUAAAAGCGCCAGAACUACAGAAAUGUAGUUGACGAGAAGGAUGUUUGUCGAAUUUUGGGCGGAUGCCUCCAAA [G38A G43U A48G C58G] | < 1e-05 s⁻¹
8 | AUAAAAGCGCCAGAACUACAGAAAUGUAGUUGACGAGGGGGAUGUUUAUCGAACUUUCGGCGGAUGCCUCCAAA [A39G G43U U54C] | 6.53e-05 ± 2.4e-05 s⁻¹
9 | AUAAAAGCGCCAGAACUACAGAAAUGUAGUUGACGAGCAGGAGGUUUAUCGAAUUUGCAGCGGGUGCCUCCAAA [G38C U57G G59A A64G] | < 1e-05 s⁻¹
10 | AUAAAAGCGCCAGAACUACAGAAAUGUAGUUGACGAUGAAGAGGUUUAUCGAAUUUUCGGCGAAUGCCUCCAAA [G37U G40A G63A] | < 1e-05 s⁻¹
11 | AUAAAAGCGCCAGAACUACAGAAAUGUAGUUGACGAGAAGGAGGUUUAUCGAAUCCUCGGCGGAUGCCUCCAAA [G38A U55C U56C] | < 1e-05 s⁻¹
12 | AUAAAAGCGCCAGAACUACAGAAAUGUAGUUGACGAGGUGGAGGUUUAACGAAUUGUCGGCGGAUGCCUCCAAA [A39U U49A U56G] | < 1e-05 s⁻¹
13 | AUAAAAGCGCCAGAACUACAGAAAUGUAGUUGACGAGGGGGAGGUUUAUCGAAUUUUCGGCGGGUGCCACCAAA [A39G A64G U69A] | 0.00038 ± 0.00012 s⁻¹
14 | AUAAAAGCGCCAGAACUACAGAAAUGUAGUUGACGAGGAAGAGGUUUUUCGAAUUUUAGACGGAUGCCUCCAAA [G40A A48U C58A G60A] | < 1e-05 s⁻¹
15 | AUAAAAGCGCCAGAACUACAGAAAUGUAGUUGACGAUGAGGAGGUUUAUCGAAUUUUCGGCGGAUUCGUCGAAA [G37U G66U C68G C71G] | 4.28e-05 ± 2e-05 s⁻¹
16 | AUAAAAGCGCCAGAACUACAGAAAUGUAGUUGACGAGCAGGAGGUUUUUCGAAUUUCCGGCGGAUGUCUCCAAA [G38C A48U U57C C67U] | < 1e-05 s⁻¹
17 | AUAAAAGCGCCAGAACUACAGAAAUGUAGUUGACGAGGGGUGGGUUUAUCGAAUUUUCGGCGGAUGCCUCCAAA [A39G G41U A42G] | 0.000339 ± 9.9e-05 s⁻¹

Row | Variant | self-cleavage kobs at 2500 uM GlcN6P
18 | AUAAAAGCGCCAGAACUACAGAAAUGUAGUUGACGAGAAGGAGGUUUAUGGAAUUUUCUGAGGAUGGCUCCAAA [G38A C50G G59U C61A C67G] | 8.22e-05 ± 2.2e-05 s⁻¹
19 | AUAAAAGCGCCAGAACUACAGAAAUGUAGUUGACGAGGGGGAGGUUUAUCGAAUGUUCGGCGGAUGCCUCUAAA [A39G U55G C71U] | 0.00336 ± 0.0015 s⁻¹
20 | AUAAAAGCGCCAGAACUACAGAAAUGUAGUUGACGAGAAAGAGUUUUAUCGAAUUUUCGCCGGAUGCCUCCAAA [G38A G40A G44U G60C] | < 1e-05 s⁻¹
21 | AUAAAAGCGCCAGAACUACAGAAAUGUAGUUGACGAGGCGGAGGUUUAUCGAAUUUUCAGCGUAUGCCUCCAAA [A39C G59A G63U] | < 1e-05 s⁻¹
22 | AUAAAAGCGCCAGAACUACAGAAAUGUAGUUGACGAGGUGGAGGUUCAUCGAAUUAUCGGCGGAUGCCUCCAAA [A39U U47C U56A] | 0.00121 ± 0.00039 s⁻¹
23 | AUAAAAGCGCCAGAACUACAGAAAUGUAGUUGACGGGGAGGAGGUUUAUCGAAUUUUCGUCGAAUGCAUCCAAA [A36G G60U G63A C68A] | < 1e-05 s⁻¹
24 | AUAAAAGCGCCAGAACUACAGAAAUGUAGUUGACGAAGAGGAGGUUUAUCGAAUUUUCGGCGGAGGACUCCAAA [G37A U65G C67A] | 4.8e-05 ± 1.1e-05 s⁻¹
25 | AUAAAAGCGCCAGAACUACAGAAAUGUAGUUGACGAGCAGGAGGUUUAUCGAAUUUUUGGCGGAUACCUCCAAA [G38C C58U G66A] | < 1e-05 s⁻¹
26 | AUAAAAGCGCCAGAACUACAGAAAUGUAGUUGACGAGUAGGAGGCUUAUCGAAUUUACGGCGGAUGCCUCCAAA [G38U U45C U57A] | < 1e-05 s⁻¹
27 | AUAAAAGCGCCAGAACUACAGAAAUGUAGUUGACGAGCAGGAGGUUUAUCGAAUUUUCCGCGGAUGCCUCGAAA [G38C G59C C71G] | < 1e-05 s⁻¹
28 | AUAAAAGCGCCAGAACUACAGAAAUGUAGUUGACGCGGAGGAGGUUUAUCGAAAUUUCGGAGGAUGACUCCAAA [A36C U54A C61A C67A] | 6.51e-05 ± 2.2e-05 s⁻¹
29 | AUAAAAGCGCCAGAACUACAGAAAUGUAGUUGACGAGGGGUAGGUUUAUCGAAUUUUCGGCGGAUGCGUCCAAA [A39G G41U C68G] | < 1e-05 s⁻¹
30 | AUAAAAGCGCCAGAACUACAGAAAUGUAGUUGACGUGGAGGAGGUUUAUCGAAGUUACGGCGGAUGCCUCCAAA [A36U U54G U57A] | < 1e-05 s⁻¹
31 | AUAAAAGCGCCAGAACUACAGAAAUGUAGUUGACGAGGGGGAGGUUUAUCGAAUUUACGGCGGAUGCCUCCAAA [A39G U57A] | 0.000309 ± 7e-05 s⁻¹
32 | AUAAAAGCGCCAGAACUACAGAAAUGUAGUUGACGAGCAGGAGGCUUAUACAAUUUUCGGCGGAUGUCUCCAAA [G38C U45C C50A G51C C67U] | < 1e-05 s⁻¹
33 | AUAAAAGCGCCAGAACUACAGAAAUGUAGUUGACGAGGGGGUGGUUUAUCGAAUGUCCGGCAGAUGCCUCCAAA [A39G A42U U55G U57C G62A] | < 1e-05 s⁻¹
34 | AUAAAAGCGCCAGAACUACAGAAAUGUAGUUGACGAGAAGGAGGUUUAUCGGAUUUACGGCGGAUGCAUCCAAA [G38A A52G U57A C68A] | 7.01e-05 ± 1.7e-05 s⁻¹

Variants of: B1
Assay: self-cleavage kobs at 10000 uM GlcN6P; higher = faster cleavage; RNA array
Conditions: with glucosamine-6-phosphate
In short: as §1

Row | Variant | self-cleavage kobs at 10000 uM GlcN6P
35 | AUAAAAGCGCCAGAACUACAGAAAUGUAGUUGACGAUGAAGAGGUUUAUCGAAUUUUCGGCGAAUGCCUCCAAA [G37U G40A G63A] | < 1e-05 s⁻¹
36 | AUAAAAGCGCCAGAACUACAGAAAUGUAGUUGACGAGGUGGAGGUUUAACGAAUUGUCGGCGGAUGCCUCCAAA [A39U U49A U56G] | < 1e-05 s⁻¹
37 | AUAAAAGCGCCAGAACUACAGAAAUGUAGUUGACGAGGGGGAGGUUUAUCGAAUUUACGGCGGAUGCCUCCAAA [A39G U57A] | 0.000335 ± 6.1e-05 s⁻¹
